Assays:
[1] = test system: GST-NR2F6 fusion protein, full-length, S83A mutant
[2] = test system: GST-NR2F6 fusion protein, full-length, wild-type
[3] = test system: GST-NR2F6 fusion protein, full-length, S89A mutant
GST-NR2F6 fusion protein, full-length, S89A mutant, sequence (chain, as listed by the source S89A): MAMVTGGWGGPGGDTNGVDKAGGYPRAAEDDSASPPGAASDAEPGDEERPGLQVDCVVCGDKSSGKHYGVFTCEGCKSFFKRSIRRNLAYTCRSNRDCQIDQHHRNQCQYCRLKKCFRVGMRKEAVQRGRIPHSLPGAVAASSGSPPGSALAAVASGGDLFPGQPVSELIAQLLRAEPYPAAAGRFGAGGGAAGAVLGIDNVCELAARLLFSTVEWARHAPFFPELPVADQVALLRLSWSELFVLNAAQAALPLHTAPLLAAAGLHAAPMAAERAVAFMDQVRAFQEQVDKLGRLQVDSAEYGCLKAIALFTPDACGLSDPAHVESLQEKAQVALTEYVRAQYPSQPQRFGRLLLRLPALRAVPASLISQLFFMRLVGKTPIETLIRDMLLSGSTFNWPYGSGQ

recombinant PKCtheta, sequence (Q04759 whole entry): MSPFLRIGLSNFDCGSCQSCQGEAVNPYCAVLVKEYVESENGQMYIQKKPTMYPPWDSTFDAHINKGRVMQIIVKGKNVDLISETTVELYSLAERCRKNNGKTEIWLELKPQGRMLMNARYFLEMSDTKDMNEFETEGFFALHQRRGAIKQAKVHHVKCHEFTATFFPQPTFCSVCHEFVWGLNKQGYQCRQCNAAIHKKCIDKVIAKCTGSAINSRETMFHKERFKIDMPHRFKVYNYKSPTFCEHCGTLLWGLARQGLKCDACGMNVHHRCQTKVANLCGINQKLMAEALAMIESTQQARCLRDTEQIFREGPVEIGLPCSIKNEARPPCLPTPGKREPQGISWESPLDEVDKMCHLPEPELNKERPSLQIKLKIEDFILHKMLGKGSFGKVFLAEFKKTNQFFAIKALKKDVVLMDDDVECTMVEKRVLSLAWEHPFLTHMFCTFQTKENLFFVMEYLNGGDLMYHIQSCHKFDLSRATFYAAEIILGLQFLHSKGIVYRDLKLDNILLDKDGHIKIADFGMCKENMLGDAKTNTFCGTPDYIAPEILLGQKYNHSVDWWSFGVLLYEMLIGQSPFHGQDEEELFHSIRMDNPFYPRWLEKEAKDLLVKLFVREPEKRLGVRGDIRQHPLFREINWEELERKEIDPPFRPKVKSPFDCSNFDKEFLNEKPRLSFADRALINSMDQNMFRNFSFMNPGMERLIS
GST-NR2F6 fusion protein, full-length, S83A mutant, sequence (chain, as listed by the source S83A): as the sequence (chain, as listed by the source S89A) above, with S83A, A89S counted along it
GST-NR2F6 fusion protein, full-length, wild-type, sequence (chain, as listed by the source): as the sequence (chain, as listed by the source S89A) above, with A89S counted along it

| Substance | phosphorylation (32P incorporation), in vitro protein kinase assay [1] | phosphorylation (32P incorporation), in vitro protein kinase assay [2] | phosphorylation (32P incorporation), in vitro protein kinase assay [3] |
| --- | --- | --- | --- |
| recombinant PKCtheta | This phosphorylation was lost after the predicted phosphorylation site at Ser-83 (but not at Ser-89) was mutated in the full-length NR2F6 protein | PKCalpha, delta and theta (but not PKCzeta or PKA) were able to phosphorylate recombinant NR2F6 in vitro | (but not at Ser-89) |
| Protein kinase A (PKA) | – | (but not PKCzeta or PKA) | – |
| recombinant PKCalpha | This phosphorylation was lost after the predicted phosphorylation site at Ser-83 (but not at Ser-89) was mutated in the full-length NR2F6 protein | PKCalpha, delta and theta (but not PKCzeta or PKA) were able to phosphorylate recombinant NR2F6 in vitro | (but not at Ser-89) |
| recombinant PKCdelta | This phosphorylation was lost after the predicted phosphorylation site at Ser-83 (but not at Ser-89) was mutated in the full-length NR2F6 protein | PKCalpha, delta and theta (but not PKCzeta or PKA) were able to phosphorylate recombinant NR2F6 in vitro | (but not at Ser-89) |

Source: patent US20110236427
